Consider one molecule from patent US20260227403A1 (HENRY M JACKSON FOUNDATION FOR THE ADVANCEMENT OF MILITARY …, published 2026).

For test [1], the target named is T1, P3 (alanine substituted, FIG. 3 panel E).
T1 construct: not the overlapping peptide P3 of panel A; also called R213 to alanine
Description: ELISA: 500 ng peptide coated per well, 29E4 at 40 ng/mL, HRP goat anti-rabbit Ig 1:16,000, ABS 450 nm, duplicates [CONT. 2]. The text has this: (§1) HRP Goat anti-rabbit Ig was applied at 1:16,000 dilution in all reactions.
(§2) Peptides were synthesized to achieve ≥70% HPLC purity by a commercial vendor (GenScript Biotech, Piscataway, NJ). Peptides were reconstituted in either water, or with addition of acetonitrile, methanol, 10% acetic acid, or DMSO, depending on the overall charge of each peptide. Key residues required for mAb binding were probed by ELISA using overlapping peptides, truncated peptides and alanine substituted peptides. Reactions were performed in duplicate using NUNC 96-well flatbottom MaxiSorp plates (Thermo Scientific). After coating each well with 500 ng of peptide in 100 μL coating buffer (50 mM NaHCO₃, pH 9.6), the plates were sealed and incubated at 4° C. overnight. […] Plates were then washed once with wash buffer, incubated with 100 μL mAb 29E4 (serially diluted from 1 mg/mL) for 1 hour at 37° C. Plates were further washed four times with wash buffer, and then incubated at 37° C. with 100 μL of a horse radish peroxidase (HRP)-conjugated secondary antibody against the primary antibody, diluted 1:16,000 according to manufacturer's protocols (KPL, Inc., Gaithersburg, MD). After washing four times with wash buffer, 100 μL of K-Blue Aqueous TMB substrate (Neogen, Lexington, KY) was added to the plates and incubated uncovered for 30 minutes at room temperature. To stop the reaction, 100 μL of 2 N Sulphuric acid was added to each well and absorbance were measured immediately at 450 nm. All dilutions of reagents were performed in ELISA diluent (20% NGS in 1×PBS with 0.1% Triton-X 100).
In general terms: An ELISA detects its analyte on a solid surface through an enzyme-linked reagent.

Test [2] deals with T2, alanine substituted peptide with P223 replaced by alanine (P13 of FIG. 3 panel E) (human).
T2 construct: The text names only the residue P223
The description is as above.
Excerpt: as §1, §2

Another test deals with T3, FLAG-SPDEF (NM_012391) (UniProt O95238 1-335).
T3 construct: Expressed in HEK-293 cells and tested as cell lysate on an immunoblot; also called SAM pointed domain-containing ETS transcription factor; not shown: FLAG tag
T3 sequence (looked up): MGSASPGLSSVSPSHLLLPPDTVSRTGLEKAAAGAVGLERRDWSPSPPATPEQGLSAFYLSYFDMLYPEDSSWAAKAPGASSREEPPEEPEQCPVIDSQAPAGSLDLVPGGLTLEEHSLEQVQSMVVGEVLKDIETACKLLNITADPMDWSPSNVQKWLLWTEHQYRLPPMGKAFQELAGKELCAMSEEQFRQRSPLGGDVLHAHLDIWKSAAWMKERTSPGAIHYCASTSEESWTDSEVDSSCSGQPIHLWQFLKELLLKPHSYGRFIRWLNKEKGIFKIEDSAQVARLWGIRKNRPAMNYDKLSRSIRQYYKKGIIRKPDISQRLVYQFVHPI
As to the kind of experiment: immunoblot of cell lysates (HEK-293 2 µg per lane) probed with 29E4; the protein is shown present in panels D and F. The procedure: Immunoblots using antibodies against ETV1 (A and H), ETV4 (B), ERG (C), SPDEF (D), FLI1 (E), FLAG (F), and GAPDH (G), as a loading control. […] PC3 cells were transfected with 25 nM non-targeting (NT) siRNA or ETV-1 siRNA oligos (lanes 1 and 2, respectively). […] were infected with either a control vector (lane 10) or adenoviral vector expressing FLI1 (lanes 11).
Cell lysates were then cleared by centrifugation at 10,000×g for 15 minutes at 4° C. and transferred to fresh tubes. Protein concentration was measured using Protein Assay Reagent (Bio-Rad, Hercules, CA). […] Separated proteins were transferred onto PVDF membranes using a Trans-Blot SD semi-dry transfer cell (BioRad) at 25 V for 90 minutes. Membranes were blocked in blocking buffer (Tris buffered saline with 0.25% Tween 20 (TBST) containing 1% BSA) for one hour at room temperature before incubation with primary antibodies (1 ng/mL) for 12 hours at 4° C. Membranes were then washed with wash buffer (TBST) in three ten-minute washes before treatment with IRDye 680RD conjugated goat anti-rabbit or IRDye 800 RD conjugated goat anti-mouse secondary antibodies (LI-COR Biosciences, Lincoln, NE) for three hours at room temperature.
For orientation: A western blot detects proteins with antibodies after separation by electrophoresis.

Test [3] has as its target T4, overlapping peptide P5 (12 amino acids, FIG. 3 panel A) (human).
T4 construct: The overlapping 12-mer is meant here
T4 peptide: PFPPQGFKQEYH
As to the kind of experiment: ELISA: 500 ng peptide coated per well, 29E4 titrated 0-1000 ng/mL, HRP goat anti-rabbit Ig 1:16,000, ABS 450 nm, duplicates.
Excerpt: as §1, §2

Test [4] deals with T5, overlapping peptide P4 (12 amino acids, FIG. 3 panel A) (human).
T5 peptide: PNIPFPPQGFKQ
The test is described as above.
Excerpt: as §1, §2

Test [5] deals with T6, overlapping peptide P3 (12 amino acids, FIG. 3 panel A) (human).
T6 construct: The overlapping 12-mer is meant here
T6 peptide: MSEPNIPFPPQG
The test is described as above.
Excerpt: as §1, §2

Test [6] deals with T7, overlapping peptide P7 (12 amino acids, FIG. 3 panel A) (human).
T7 construct: The overlapping 12-mer is meant here
T7 peptide: FKQEYHDPVYEH
Described as above.
Excerpt: as §1, §2

The target in test [7] is T8, ETV1 immunogenic peptide P1 (human).
T8 construct: 27 amino acid peptide, ETV1 residues 212-238; also called immunogen peptide; ETV1 P1 peptide
Described as above.
Excerpt: as §1, §2

Test [8] deals with T9, overlapping peptide P6 (12 amino acids, FIG. 3 panel A) (human).
T9 construct: The overlapping 12-mer is meant here
T9 peptide: PQGFKQEYHDPV
Described as above.
Excerpt: as §1, §2

T8 sequence (peptide, as listed by the source): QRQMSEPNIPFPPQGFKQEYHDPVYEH
T1 sequence (peptide, as listed by the source): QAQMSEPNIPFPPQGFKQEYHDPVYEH
T2 sequence (peptide, as listed by the source): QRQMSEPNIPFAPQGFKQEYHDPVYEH

B1: ETV1 rabbit monoclonal antibody (29E4) (antibody, V domains shown)
VH: QELEESGGDLVKPGASLTLTCTASGFFFSAENHICWVRQAPGKGLEWIGCVYIGSYVGGSGDPYYASWAKGRFTISKTSSTTVTLQMSSLTAADTATYFCARDLGSLWGPGTLVTVSS
VL: DVVMTQTASSVSAAVGGTVTIACQSSQSVYDNNNLAWFQQKPGQPPKRLIYSASTLASGVSSRFKGSGYGTQFTLTISDVQCDDAATYYCVGAFSGYIFVFGGGTEVVVK
notes: constant regions are not; also called 29E4 mAb; ETV1 29E4 mAb
Broadly, the EC50 (read off the curve) is the midpoint of the concentration-response curve. Low values mean greater potency, high ones weaker potency. On to B1, for which the binding result in test [1] is recorded as “binds”; in test [2], “binds”; in the test with FLAG-SPDEF (NM_012391) it was “no binding”; in [3] it was “binds”; in test [5] it was “binds”; in test [6], “no binding (tested: 1000 ng/mL)”. The binding result in test [8] is given as “no binding (tested: 1000 ng/mL)”. The concentration giving a half-maximal response (EC50 (read off the curve)) in test [4] is around 100 ng/mL; in test [7], around 20 ng/mL.
